In patent US20030129186A1 (published 2003):

Tests used:
[1] = molecular target: p97 receptor on isolated human brain capillaries (human); assay: cell-based or functional assay
[2] = molecular target: T1, p97 receptor (melanotransferrin receptor, MTf-R) on bovine brain capillary endothelial cells (BBCECs) (bovine); assay: cell-based or functional assay
[3] = molecular target: T1, p97 receptor (melanotransferrin …); assay: Scatchard analysis of [125I]-p97 binding to saponin-permeabilized BBCEC monolayers at 4 C, displaced by unlabelled p97
[4] = molecular target: T1, p97 receptor (melanotransferrin …); assay: Scatchard plot of specific [125I]-p97 binding to saponin-treated BBCECs (FIG. 12c)
[5] = molecular target: T1, p97 receptor (melanotransferrin …); assay: [125I]-p97 (25 nM) binding to BBCECs, 2 h at 4 C, with or without saponin

- decrease in uptake of [125I]-p97 (100 nM) into isolated human brain capillaries, 1 h at 37 C, with a 50-fold molar excess of unlabelled p97 [1]: 60%
- decrease in apical-to-basal transport of [125I]-p97 (25 nM) across BBCEC monolayers with a 200-fold molar excess of unlabelled p97 [2]: 69%
- Kd [3]: 1.4 µM
- Kd [4]: ~1 µM
- fold increase of [125I]-p97 associated with cells after saponin permeabilization (against untreated cells) [5]: 4 fold
B1: recombinant human melanotransferrin (p97) (ligand, UniProt P08582 20-709, looked up)
chain: GMEVRWCATSDPEQHKCGNMSEAFREAGIQPSLLCVRGTSADHCVQLIAAQEADAITLDGGAIYEAGKEHGLKPVVGEVYDQEVGTSYYAVAVVRRSSHVTIDTLKGVKSCHTGINRTVGWNVPVGYLVESGRLSVMGCDVLKAVSDYFGGSCVPGAGETSYSESLCRLCRGDSSGEGVCDKSPLERYYDYSGAFRCLAEGAGDVAFVKHSTVLENTDGKTLPSWGQALLSQDFELLCRDGSRADVTEWRQCHLARVPAHAVVVRADTDGGLIFRLLNEGQRLFSHEGSSFQMFSSEAYGQKDLLFKDSTSELVPIATQTYEAWLGHEYLHAMKGLLCDPNRLPPYLRWCVLSTPEIQKCGDMAVAFRRQRLKPEIQCVSAKSPQHCMERIQAEQVDAVTLSGEDIYTAGKTYGLVPAAGEHYAPEDSSNSYYVVAVVRRDSSHAFTLDELRGKRSCHAGFGSPAGWDVPVGALIQRGFIRPKDCDVLTAVSEFFNASCVPVNNPKNYPSSLCALCVGDEQGRNKCVGNSQERYYGYRGAFRCLVENAGDVAFVRHTTVFDNTNGHNSEPWAAELRSEDYELLCPNGARAEVSQFAACNLAQIPPHAVMVRPDTNIFTVYGLLDKAQDLFGDDHNKNGFKMFDSSNYHGQDLLFKDATVRAVPVGEKTTYRGWLGLDYVAALEGMSSQQC
notes: also called MTf
